Biological target: T1, FAP (Homo sapiens, UniProt Q12884)
T1 construct: the extracellular domain of FAP was cloned with a His-6 tag; made in house
T1 sequence (Q12884 26-760 limits assumed): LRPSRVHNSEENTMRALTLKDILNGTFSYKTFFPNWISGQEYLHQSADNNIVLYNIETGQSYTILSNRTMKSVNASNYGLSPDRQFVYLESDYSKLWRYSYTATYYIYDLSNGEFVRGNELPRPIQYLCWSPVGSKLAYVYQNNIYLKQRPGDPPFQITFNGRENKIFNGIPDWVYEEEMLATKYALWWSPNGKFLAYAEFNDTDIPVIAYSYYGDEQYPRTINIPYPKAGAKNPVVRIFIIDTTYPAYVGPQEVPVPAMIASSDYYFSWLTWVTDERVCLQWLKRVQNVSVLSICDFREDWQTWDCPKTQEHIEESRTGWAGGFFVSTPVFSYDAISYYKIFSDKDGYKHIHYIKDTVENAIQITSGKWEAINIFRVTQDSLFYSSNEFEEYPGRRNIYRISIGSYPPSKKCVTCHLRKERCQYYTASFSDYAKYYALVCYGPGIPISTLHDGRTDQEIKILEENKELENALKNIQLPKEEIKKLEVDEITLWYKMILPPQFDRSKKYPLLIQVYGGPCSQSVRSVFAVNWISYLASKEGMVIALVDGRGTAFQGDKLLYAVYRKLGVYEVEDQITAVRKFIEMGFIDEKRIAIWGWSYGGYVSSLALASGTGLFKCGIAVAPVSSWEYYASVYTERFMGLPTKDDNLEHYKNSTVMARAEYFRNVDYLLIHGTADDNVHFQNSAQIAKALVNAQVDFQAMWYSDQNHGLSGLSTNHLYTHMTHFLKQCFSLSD
Test: LC-MS/MS cleavage map of FAP digest of 100 kDa recombinant human gelatin
Format: biochemical
Settings: 100 kDa gelatin digest; for Percentage: share of all occurrences
Protocol: Human collagen I (Becton Dickinson, Franklin Lakes, N.J.) and recombinant human gelatins of 100 KDa and 8.5 KDa (Fibrogen, San Francisco, Calif.) were dissolved in reaction buffer to a final concentration of 100-300 μg/ml. 0.5-1 μg of FAP was added per 100 μgs of protein substrate. Digestion was done for 4-6 hrs at 37° C. As a positive control trypsin digestion was used. As a negative control, protein solutions were incubated either with BSA or buffer only. Peptide fragments of a size <30 KDa were purified using 30 KDa Microcon spin filter (Millipore, Billerica, Mass.).
Peptides obtained from FAP/gelatin digests were dried using a speedvac (Eppendorf), resuspended in LC/MS loading buffer (3% ACN, 0.1% formic acid), and analyzed using nano-flow LC/MS/MS on an Agilent 1100 series nano-LC system (Agilent) coupled to an LCQ Duo ion trap mass spectrometer (ThermoFinnigan). Peptides were pre-concentrated on a 5 mm Zorbax C18 trap column (Agilent) and then eluted onto a 100×0.075 mm custom-packed Biobasic C18 (ThermoElectron) reversed phase capillary column connected to a laser-pulled electrospray ionization emitter tip (New Objective) at a flowrate of 300 nl/min Peptides were eluted the nanospray source of the LCQ (Proxeon, Denmark) using the following gradient: 0% B at 0 min, 5% B at 8 min, 45% B at 50 min, 90% B at 55 min, 90% B at 60 min (B=0.1% formic acid in acetonitrile) at a spray voltage of 2.5 kV. The LCQ was operated in data-dependent mode using the Xcalibur software (ThermoFinnigan) in which every MS scan (400-1800 m/z) was followed by MS/MS scans (400-1800 m/z) on the 3 most intense ions using an isolation window of ±1.5 Da. Ions selected for MS/MS fragmentation were dynamically excluded for 30 s.
MS/MS data were searched against a collagen FASTA database using the SEQUEST search algorithm built into the Bioworks Browser (ThermoFinnigan) allowing for the variable modification of Methionine oxidation. Peptides were initially filtered in a charge dependent manner using an XCorr filter of 1.5, 2, and 2.5 for singly, doubly, and triply charged peptides. All MS/MS spectra used to identify peptides were manually inspected for validation of y and b-ion series. To quantify the relative abundance of each identified peptide we compared the ion current for each of the observed peptide parent ions from the MS spectra. The contribution of each parent ion to the total ion current was extracted and integrated over the peptide elution peak.
To resolve each particular mass fragment a Liquid Chromatograpy (LC) and Tandem mass spectroscopy (MS-MS) [LC-MS-MS] method was developed. Using this method, peptide fragments from FAP digests of the 8.5 kDa and 100 kDa recombinant gelatin were time-resolved by nano reverse phase LC (FIGS. 12 and 14) and then sequenced using an ion trap mass spectrometer operating in MS/MS mode. Initial methodological issues were worked out using the 8.5 kDa fragment before analyzing the entire 100 kDa protein. MS/MS spectra were searched against the 8.5 kDa and 100 kDa gelatin sequences using the SEQUEST algorithm with no cleavage specificity. Most of the identified cleavage sites in both sized gelatins occurred after Proline. However, FAP cleavage sites in these gelatins were not restricted to Proline alone. FAP was also found to cleave after Ala (e.g. A/A, A/G, A/P, A/R), Asp (e.g. D/G, D/T), Gly (e.g. G/A, G/E, G/L, G/Q, G/P, G/V), Glu (i.e., E/P), Lys (i.e., K/A, K/G), Ser (e.g. S/P) and Val (e.g. V/G).
To identify the most preferentially cleaved sites, we relatively quantified the abundance of each of the identified peptides by integrating the ion current generated by each peptide throughout the chromatogram. After identification of a peptide from a MS/MS spectrum, we extracted the ion current for the parent mass of the ion from the total MS ion chromatogram using a 1.5 Da tolerance window, and then integrated under the peak (FIGS. 12 and 14). […]

| Occurences | Percentage | Substance |
| --- | --- | --- |
| 2 | 0.95 | A.AGRVGPPGP.S: FAP cleavage fragment, 100 kDa recombinant human gelatin |
| 1 | 0.48 | A.GPAGPPGP.I: FAP cleavage fragment, 100 kDa recombinant human gelatin |
| 1 | 0.48 | A.GPPGAPGAPGAPGP.V: FAP cleavage fragment, 100 kDa recombinant human gelatin |
| 4 | 1.90 | A.PGAPGAPGPVGPAGKSGDRGETGP.A: FAP cleavage fragment, 100 kDa recombinant human gelatin |
| 2 | 0.95 | A.PGAPGPVGPAGKSGDRGETGP.A: FAP cleavage fragment, 100 kDa recombinant human gelatin |
| 2 | 0.95 | A.PGDKGESGP.S: FAP cleavage fragment, 100 kDa recombinant human gelatin |
| 1 | 0.48 | A.PGPVGPAGKSGDRGETGP.A: FAP cleavage fragment, 100 kDa recombinant human gelatin |
| 2 | 0.95 | D.GQPGAKGEPGDAGAKGDAGPPGP.A: FAP cleavage fragment, 100 kDa recombinant human gelatin |
| 2 | 0.95 | D.GRPGPPGPPGARGQAG.V: FAP cleavage fragment, 100 kDa recombinant human gelatin |
| 5 | 2.38 | E.PGKQGPSGASGERGPPGP.M: FAP cleavage fragment, 100 kDa recombinant human gelatin |
| 2 | 0.95 | G.PPGADGQPGAKGEPGDAGAKGDAGPPGP.A: FAP cleavage fragment, 100 kDa recombinant human gelatin |
| 7 | 3.33 | G.PPGAPGAPGAPGPVGPAGKSGDRGETGP.A: FAP cleavage fragment, 100 kDa recombinant human gelatin |
| 2 | 0.95 | G.PPGPAGAPGDK.G: FAP cleavage fragment, 100 kDa recombinant human gelatin |
| 3 | 1.43 | G.PPGPAGAPGDKGESGP.S: FAP cleavage fragment, 100 kDa recombinant human gelatin |
| 1 | 0.48 | G.PPGPAGPAGPPGP.I: FAP cleavage fragment, 100 kDa recombinant human gelatin |
| 1 | 0.48 | G.PSGEPGKQGPSGASGERGPPGP.M: FAP cleavage fragment, 100 kDa recombinant human gelatin |
| 6 | 2.86 | G.PTGARGAPGDRGEPGPPGP.A: FAP cleavage fragment, 100 kDa recombinant human gelatin |
| 7 | 3.33 | P.AGEKGSPGADGPAGAPGTPGP.Q: FAP cleavage fragment, 100 kDa recombinant human gelatin |

| Occurences | Percentage | Substance |
| --- | --- | --- |
| 8 | 3.81 | P.AGFAGPPGADGQPGAKGEPGDAGAKGDAGPPGP.A: FAP cleavage fragment, 100 kDa recombinant human gelatin |
| 4 | 1.90 | P.AGNPGADGQPGAKGANGAPGIAGAPGFPGARGP.S: FAP cleavage fragment, 100 kDa recombinant human gelatin |
| 1 | 0.48 | P.AGPKGEPGSPGENGAPG.Q: FAP cleavage fragment, 100 kDa recombinant human gelatin |
| 8 | 3.81 | P.AGPPGAPGAPGAPGP.V: FAP cleavage fragment, 100 kDa recombinant human gelatin |
| 2 | 0.95 | P.AGPPGAPGAPGAPGPVGP.A: FAP cleavage fragment, 100 kDa recombinant human gelatin |
| 6 | 2.86 | P.AGPPGAPGAPGAPGPVGPAGKSGDRGETGP.A: FAP cleavage fragment, 100 kDa recombinant human gelatin |
| 6 | 2.86 | P.AGPPGEAGKPGEQGVPGDLGAPGP.S: FAP cleavage fragment, 100 kDa recombinant human gelatin |
| 2 | 0.95 | P.AGPPGFPGAVGAKGEAGP.Q: FAP cleavage fragment, 100 kDa recombinant human gelatin |
| 3 | 1.43 | P.AGPPGPIGNVGAPGAKGARGSAGPPGATGFPGAAGRVGPPGP.S: FAP cleavage fragment, 100 kDa recombinant human gelatin |
| 6 | 2.86 | P.AGPTGARGAPGDRGEPGPPGP.A: FAP cleavage fragment, 100 kDa recombinant human gelatin |
| 11 | 5.24 | P.AGRPGEVGPPGPPGP.A: FAP cleavage fragment, 100 kDa recombinant human gelatin |
| 1 | 0.48 | P.GGPPGPKGNSGEPGAPGSKGD.T: FAP cleavage fragment, 100 kDa recombinant human gelatin |
| 1 | 0.48 | P.GPPGAPGP.Q: FAP cleavage fragment, 100 kDa recombinant human gelatin |
| 1 | 0.48 | P.GPSGNAGPPGPP.G: FAP cleavage fragment, 100 kDa recombinant human gelatin |
| 6 | 2.86 | P.IGPPGPAGAPGDKGESGP.S: FAP cleavage fragment, 100 kDa recombinant human gelatin |
| 1 | 0.48 | P.KGAAGEPGKAGERGVPGPPGAVGPAGKDGEAGAQGPPGP.A: FAP cleavage fragment, 100 kDa recombinant human gelatin |
| 2 | 0.95 | P.PGAPGAPGAPGPVGPAGKSGDRGETGP.A: FAP cleavage fragment, 100 kDa recombinant human gelatin |

Source: patent US20140087991A1, “PEPTIDE PRODRUGS” (The Johns Hopkins University, priority 2006, published 2014)
